In article PMC2766095:
Blank lines part the entries; values can stand above or below the substance they belong to.

Assays:
[1] = molecular target: IL-33/ST2 complex (human) (UniProt Q01638); experiment: ITC
[2] = molecular target: ST2-Fc fusion protein (R&D Systems) (UniProt Q01638); experiment: SPR
[3] = molecular target: ST2 extracellular domain (ectodomain) (human) (UniProt Q01638); experiment: ITC

Kd [1]: 76 nM
dH [1]: -11 kcal/mol
stoichiometry N [1]: 1
Substance: IL-1 receptor accessory protein (IL-1RAcP) extracellular domain (from UniProt Q9NPH3 21-367)

Kd [2]: 3.11 nM
Substance: IL-33 E34K (ligand)

stoichiometry N [3]: 1
Substance: human IL-33 (interleukin-33), recombinant mature IL-1-like form (ligand)
